Test results reported in patent publication US7935343B2.

Columns and labels:
[1] = target: human IL-13 (human)
[2] = target: T1, murine IL-13 (murine)
T1 sequence: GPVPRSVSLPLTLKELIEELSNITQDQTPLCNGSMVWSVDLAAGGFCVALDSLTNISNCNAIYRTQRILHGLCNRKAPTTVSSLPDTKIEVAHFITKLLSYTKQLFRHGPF

[3] = target: T1, murine IL-13 (murine); remark: listed apart in the source

Sequence of human IL-13 (human) (chain, as listed by the source): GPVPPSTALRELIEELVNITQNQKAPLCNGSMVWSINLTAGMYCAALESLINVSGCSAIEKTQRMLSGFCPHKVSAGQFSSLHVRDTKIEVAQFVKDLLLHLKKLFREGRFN

B1: BAK278D6 scFv (scFv, V domains shown)
VH: EVQLVQSGAEVKKPGASVKVSCKASGYTFRNYGLSWVRQAPGQGLEWMGWISANNGDTNYGQEFQGRITMTTETSTNTAHMELRSLRSDDTAVYYCVRDSSSNWARWFFDLWGKGTMVTVSS
VL: SYVLTQPPSVSVAPGQTARIPCGGNNIGSKLVHWYQQKPGQAPVLVVYDDGDRPSGIPERFSGSNSGNTATLTISRIDAGDEADYYCQVWDTGSDPVVFGGGTKLTVL
[1]
  IC50, TF-1 proliferation (Mean TF1): 44 nM

B2: BAK209B11 scFv (scFv, V domains shown)
VH: VQLQESGGGGLVQPGGSLRLSCAASGFTFSSYGMSWVRQAPGKGLEWVSSISASGDSTFYADSVKGRFTISRDNNKNMVFLQVNSLRADDTAVYFCAKDWSQWLVGDAFDVWGRGTTVTVSS
VL: DIQLTQSPSTLSASVGDRVTITCRASQSVSLWVAWYQQRPGKAPKLLIYDGSTLQSGVPARFSGSGSGTEFTLTISSLQPDDFATYYCQQYKTFSTFGQGTKVEIKR
[2]
  IC50, TF-1 cell proliferation: 185 nM

B3: BAK209B11 human IgG4 (antibody, V domains shown)
VH: B2 VH
VL: B2 VL
[3]
  IC50, B9 cell proliferation: 0.776 nM
